From the FLAb antibody collection (doi:10.7554/elife.23156)

Key:
fluorescein = test: Kd (Tite-Seq); settings: format: scFv 4-4-20, heavy + light
[1] = yeast surface expression (ratio to wild type); higher = more expressed; settings: format: scFv 4-4-20, heavy + light

Kd (fluorescein): ≥ 10 µM
B1: unnamed (protein)
chain 1: EVKLDETGGGLVQPGRPMKLSCVASGFEPQSPSPQNKRQSPEKGLEWVAQIRNKPYNYETYYSDSVKGRFTISRDDSKSSVYLQMNNLRVEDMGIYYCTAHETLLCCLWQGTSVTVS
chain 2: DVVMTQTPLSLPVSLGDQASISCRSSQSLVHSNGNTYLRWYLQKPGQSPKVLIYKVSNRFSGVPDRFSGSGSGTDFTLKISRVEAEDLGVYFCSQSTHVPWTFGGGTKLEIK
yeast surface expression [1]: 0.444
